Data set [1] has as its system N=C(N)NCCC[C@H](NC(=O)[C@H](Cc1ccc(NC(=N)N)cc1)NC(=O)OCc1ccccc1)C(=O)Nc1ccc2ccc(=O)oc2c1. As to the kind of experiment: (§1) Inhibition of human cathepsin B assessed as ratio of Kcat/Km using Z-Phe-Arg-MCA as substrate by spectrofluorometric method.
In data set [2] the test system is N=C(N)NCCC[C@H](NC(=O)[C@H](Cc1ccccc1)NC(=O)OCc1ccccc1)C(=O)Nc1ccc2ccc(=O)oc2c1. Described as §1.
The test system of data set [3] is N=C(N)NCCC[C@H](NC(=O)OCc1ccccc1)C(=O)N[C@@H](CCCNC(=N)N)C(=O)Nc1ccc2ccc(=O)oc2c1. The data set is described as §1.
The subject of data set [4] is N=C(N)NCCC[C@H](NC(=O)[C@H](Cc1ccncc1)NC(=O)OCc1ccccc1)C(=O)Nc1ccc2ccc(=O)oc2c1. The data set is described as §1.

1 substance from ChEMBL document CHEMBL4321793, “Can Cysteine Protease Cross-Class Inhibitors Achieve Selectivity?” (J Med Chem, 2019) can be followed below.

On to Cathepsin B (Homo sapiens), for which the kcat/Km in data set [1] is 1.57e+06 M⁻¹ s⁻¹; in data set [2], 2.32e+06 M⁻¹ s⁻¹; in data set [3], 554000 M⁻¹ s⁻¹; in data set [4], 742000 M⁻¹ s⁻¹.
